The values below come from publication PMC5013273.

The assay has as its target zona pellucida of in vitro matured (IVM) porcine oocytes (pig (endogenous on porcine oocytes)).

As to “full-length rabbit OVGP1, recombinant, histidine-tagged (natural protein)”, the ZP digestion time in 0.5% pronase after 1 hr exposure of IVM porcine oocytes to 5, 50 and 125 μg/ml rOVGP1 was found to be 989 min.

B1: truncated porcine OVGP1 lacking region D (regions A and B, 481 aa), recombinant, histidine-tagged (domain or fragment)
chain: HKLVCYFANWAFSRPGPASILPRDLDPFLCTHLVFAFASMNDSQIVAKDARDESIFYPEFNQLKERNEKLKTLLSIGGWNFGTSRFTTMLSTFTNREKFIRSAIGLLRTHGFDGLDLFFLYPGLRGSPRRDRWNFLFLLEELLLAFRREAQLTMRPRLLLSAAVSADPHVIQKAYDVRLLGRLLDFINVLSYDLHGSWEKVTGHNSPLFSLSDDPKSSAYTMNYWRKLGAPPEKLLMGFPTYGRTFRLLKASKNELGAEAVGPASPGKYTKQAGFLAYYEVCSFVQRAKKRWIDHQYVPYAYRGKEWVGYDDDISFSYKAFFIKKEHFGGAMVWTLDLDDVRGTFCGTGPFPLVYMLNDLLLKAEVSSTLSPGFGLSTTVNSSRTCPESLAVTKDLTTDLGILPLGGEAVATETHGRSDNMTVTPGGGLVAPTRPTLSFGKLTVAPEGKTESPGEKAMTP
Molecule B1 showed a ZP digestion time in 0.5% pronase after 1 hr exposure of IVM porcine oocytes to 125 and 250 μg/ml pOVGP1AB of 465 min.

B2: full-length porcine OVGP1 (oviduct-specific glycoprotein, oviductin), recombinant, histidine-tagged (natural protein)
chain: HKLVCYFANWAFSRPGPASILPRDLDPFLCTHLVFAFASMNDSQIVAKDARDESIFYPEFNQLKERNEKLKTLLSIGGWNFGTSRFTTMLSTFTNREKFIRSAIGLLRTHGFDGLDLFFLYPGLRGSPRRDRWNFLFLLEELLLAFRREAQLTMRPRLLLSAAVSADPHVIQKAYDVRLLGRLLDFINVLSYDLHGSWEKVTGHNSPLFSLSDDPKSSAYTMNYWRKLGAPPEKLLMGFPTYGRTFRLLKASKNELGAEAVGPASPGKYTKQAGFLAYYEVCSFVQRAKKRWIDHQYVPYAYRGKEWVGYDDDISFSYKAFFIKKEHFGGAMVWTLDLDDVRGTFCGTGPFPLVYMLNDLLLKAEVSSTLSPGFGLSTTVNSSRTCPESLAVTKDLTTDLGILPLGGEAVATETHGRSDNMTVTPGGGLVAPTRPTLSFGKLTVAPEGKTESPGEKAMTPVGHPSVTPGDMSVPPVPIQTGDRITPPRRQAVAPEKMTLPSGKRSD
As to B2, the ZP digestion time in 0.5% pronase after 1 hr exposure of IVM porcine oocytes to 125 and 250 μg/ml pOVGP1 turned out to be 102 min.
